Changes are numbered by the printed parent chain.
How the values were obtained:
[1] = test system: T1, dCas12j-8 E258R+D313R E258R;D313R;D369A;E567A;D658A (bacteriophage (metagenome)); details: HEK293T cells; panel 1d (compare within a panel only); scale: mean GFP / mean GFP of wild type, printed, no background subtraction
T1 sequence: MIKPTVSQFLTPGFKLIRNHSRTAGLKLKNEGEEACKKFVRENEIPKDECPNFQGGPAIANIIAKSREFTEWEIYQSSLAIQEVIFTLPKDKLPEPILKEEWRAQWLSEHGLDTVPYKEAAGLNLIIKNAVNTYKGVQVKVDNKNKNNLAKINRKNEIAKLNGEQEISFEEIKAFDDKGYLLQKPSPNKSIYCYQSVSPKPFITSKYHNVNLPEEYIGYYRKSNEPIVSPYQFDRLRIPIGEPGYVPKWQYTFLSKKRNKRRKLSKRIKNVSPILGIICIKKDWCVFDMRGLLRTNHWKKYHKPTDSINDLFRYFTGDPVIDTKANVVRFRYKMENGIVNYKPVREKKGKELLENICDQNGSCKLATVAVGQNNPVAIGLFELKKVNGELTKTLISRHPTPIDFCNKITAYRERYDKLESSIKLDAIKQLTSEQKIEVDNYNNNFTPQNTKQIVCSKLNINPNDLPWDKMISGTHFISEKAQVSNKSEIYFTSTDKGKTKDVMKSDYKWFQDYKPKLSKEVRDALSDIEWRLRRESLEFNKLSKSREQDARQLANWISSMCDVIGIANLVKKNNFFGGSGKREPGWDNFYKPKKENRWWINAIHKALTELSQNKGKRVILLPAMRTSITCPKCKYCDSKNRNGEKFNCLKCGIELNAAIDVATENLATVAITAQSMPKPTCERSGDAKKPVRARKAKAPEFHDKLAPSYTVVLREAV

[2] = test system: T2, dCas12j-8 E258R+D313R+D495R E258R;D313R;D495R;D369A;E567A;D658A (bacteriophage (metagenome)); details: HEK293T cells; panel 1e (compare within a panel only); scale: mean GFP / mean GFP of wild type, printed, no background subtraction
T2 sequence: T1 sequence with D495R

[3] = test system: T3, dCas12j-8 E258R+E547R E258R;E547R;D369A;E567A;D658A (bacteriophage (metagenome)); details: HEK293T cells; panel 1d (compare within a panel only); scale: mean GFP / mean GFP of wild type, printed, no background subtraction
T3 sequence: T1 sequence with R313D, E547R

## CUUUCAAGACUAAUAGAUUGCUCCUUACGAGGAGACACUCCCUAUCAGUGAUAGAG / TTNACTCCCTATCAGTGATAGAG / CTCTATCACTGATAGGGAGTNAA [TetO]
[1]
  binding signal: 3.3
[2]
  binding signal: 4.66
[3]
  binding signal: 3.03
